Patent publication US9309303B2, “Complexation of fatty acid-conjugated molecules with albumin” (The University of the Sciences in Philadelphia, priority 2007, dated 2016)
Ends that are not written are not given here. fluorescein = fluorescein conjugated to the primary amine of the Lys side chain through an MHS ester

Columns and labels:
[1] = esterase assay, p-nitrophenyl acetate hydrolysis; format: biochemical; conditions: 5 μM p-nitrophenyl acetate, 40 μg protein, pH 7.4, 37° C., 390 nm
Experimental: The reaction of p-nitrophenyl acetate hydrolysis-mediated by rHSA and RGD-rHSA was assessed spectrophotometrically at 390 nm by monitoring the appearance of p-nitrophenol. The reaction mixtures contained 5 μM p-nitrophenyl acetate and 40 μg protein in 67 mM phosphate buffer (pH 7.4). Reactions were performed at 37° C.

αvβ3 integrin = target: T1, αvβ3 integrin (Homo sapiens, UniProt P05106+P06756); assay: αvβ3 integrin-binding assay (co-immunoprecipitation / Ni2+ pull-down, Western blotting); conditions: co-immunoprecipitation and Western blotting
T1 construct: 300 μg MDA-MD-435S (αvβ3 positive) cell extract; endogenous in cells; host or cells: MDA-MB-435S (printed MDA-MD-435S) cell extract
Experimental: Lanes 3 and 6 each contained mixture of 300 μg MDA-MD435S cell extract and 1.2 μg of RGD-rHSA (wild type HSA). For the convenience of purification and detection, all rHSAs were fused with c-terminal c-myc and His6 tags. For lane 1, 2, and 3, the αvβ3 complexes were immunoprecipitated with anti-αv antibody (CHEMICON, AB1930). rHSAs associated with αvβ3 were detected by anti-c-myc antibody. […] For lane 4,5, and 6, the poly-HIS-tagged rHSAs were pulled down with Ni2+-charged chelating agarose. αvβ3 Associated with rHSAs was detected by anti-αv antibody (CHEMICON, AB 1930).

[2] = solubility of rHSA purified from Pichia pastoris expression system; format: physicochemical
Text: We cloned, expressed and purified this rHSA from a Pichia pastoris yeast rHSA expression system. The protein was soluble and was purified to apparent homogeneity. We confirmed the identity of the purified protein by Western blotting using anti-HSA antibody and anti-c-Myc antibody. The alpha-v-beta-3 integrin binding ability of RGD-HSA was confirmed by co-immunoprecipitation and Western blotting.

HeLa cells [3] = assay: cellular uptake and/or binding of Rhodamine-labeled rHSAs, fluorescent microscopy; format: cell-based; conditions: 50 pmol labeled rHSA
Experimental: It has been reported that there is no αvβ3 type of integrin in HeLa cells. Nonetheless, HeLa cells are still able to bind fibronectin. Similar to the cellular uptake experiments for MDA-MB-435S cells, the fluorescent dye labeled rHSAs (50 pmol for rHSA, RGD-rHSA-FN and RGD-rHSA-4C) were added to cultured HeLa cells (with 250 μl EMEM in 24-well plate). Cellular uptake and/or binding was monitored at 1, 4, and 8 hours after washing with fresh non-labeled medium. Cellular uptake and/or binding of albumin was then visualized using fluorescent microscopy.

HeLa cells [4] = assay: transfection of HeLa cells with peptides in the presence of HSA; format: cell-based; conditions: 250 pmol peptide, 250 pmol HSA
Experimental: Fatty acid-conjugated faTraF peptides and non-conjugated faTraE peptides (250 pmol) were added to separate batches of HeLa cells (24-well plate with 250 μl of EMEM medium). 250 Pmol of HSA was added to the incubation of some wells, but not others. Cells incubated in the presence of HSA and the fatty-acid conjugated peptides were transfected.

HSA = HSA (Homo sapiens, UniProt P02768); conditions: 25 pmol peptide, 100 pmol defatted HSA, 15 minutes, room temperature
Text: The reaction mixture was loaded to 0.5×TBE acrylamide gel and separated under 12 mA current.

T1 sequence (P06756 31-889 limits assumed): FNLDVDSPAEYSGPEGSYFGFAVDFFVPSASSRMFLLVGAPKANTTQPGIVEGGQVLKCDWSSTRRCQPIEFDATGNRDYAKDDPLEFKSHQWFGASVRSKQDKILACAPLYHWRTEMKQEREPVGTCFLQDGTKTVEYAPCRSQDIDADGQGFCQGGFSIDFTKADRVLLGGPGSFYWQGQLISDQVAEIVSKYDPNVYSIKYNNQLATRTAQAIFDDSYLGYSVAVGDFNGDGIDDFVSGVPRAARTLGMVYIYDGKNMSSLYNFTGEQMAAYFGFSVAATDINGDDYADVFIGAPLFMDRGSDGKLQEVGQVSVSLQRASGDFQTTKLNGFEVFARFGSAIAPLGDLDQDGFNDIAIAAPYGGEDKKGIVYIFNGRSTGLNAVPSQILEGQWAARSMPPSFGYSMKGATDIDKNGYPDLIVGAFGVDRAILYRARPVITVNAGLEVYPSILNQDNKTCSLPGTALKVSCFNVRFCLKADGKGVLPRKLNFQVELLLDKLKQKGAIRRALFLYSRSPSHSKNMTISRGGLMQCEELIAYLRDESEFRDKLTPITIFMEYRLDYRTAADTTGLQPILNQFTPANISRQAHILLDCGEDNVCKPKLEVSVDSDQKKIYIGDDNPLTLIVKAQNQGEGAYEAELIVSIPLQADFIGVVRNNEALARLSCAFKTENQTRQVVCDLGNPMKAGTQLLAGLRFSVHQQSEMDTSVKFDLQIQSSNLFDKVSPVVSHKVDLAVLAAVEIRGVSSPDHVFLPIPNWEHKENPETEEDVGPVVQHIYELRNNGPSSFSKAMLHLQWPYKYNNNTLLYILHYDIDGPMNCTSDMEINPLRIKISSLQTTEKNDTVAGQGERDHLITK
T1 sequence (P06756 891-1048 partner limits assumed): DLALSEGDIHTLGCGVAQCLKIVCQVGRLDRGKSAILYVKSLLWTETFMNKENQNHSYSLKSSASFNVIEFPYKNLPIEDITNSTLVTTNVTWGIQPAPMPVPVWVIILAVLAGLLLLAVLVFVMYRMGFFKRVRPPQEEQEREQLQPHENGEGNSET
T1 sequence (P05106 27-788): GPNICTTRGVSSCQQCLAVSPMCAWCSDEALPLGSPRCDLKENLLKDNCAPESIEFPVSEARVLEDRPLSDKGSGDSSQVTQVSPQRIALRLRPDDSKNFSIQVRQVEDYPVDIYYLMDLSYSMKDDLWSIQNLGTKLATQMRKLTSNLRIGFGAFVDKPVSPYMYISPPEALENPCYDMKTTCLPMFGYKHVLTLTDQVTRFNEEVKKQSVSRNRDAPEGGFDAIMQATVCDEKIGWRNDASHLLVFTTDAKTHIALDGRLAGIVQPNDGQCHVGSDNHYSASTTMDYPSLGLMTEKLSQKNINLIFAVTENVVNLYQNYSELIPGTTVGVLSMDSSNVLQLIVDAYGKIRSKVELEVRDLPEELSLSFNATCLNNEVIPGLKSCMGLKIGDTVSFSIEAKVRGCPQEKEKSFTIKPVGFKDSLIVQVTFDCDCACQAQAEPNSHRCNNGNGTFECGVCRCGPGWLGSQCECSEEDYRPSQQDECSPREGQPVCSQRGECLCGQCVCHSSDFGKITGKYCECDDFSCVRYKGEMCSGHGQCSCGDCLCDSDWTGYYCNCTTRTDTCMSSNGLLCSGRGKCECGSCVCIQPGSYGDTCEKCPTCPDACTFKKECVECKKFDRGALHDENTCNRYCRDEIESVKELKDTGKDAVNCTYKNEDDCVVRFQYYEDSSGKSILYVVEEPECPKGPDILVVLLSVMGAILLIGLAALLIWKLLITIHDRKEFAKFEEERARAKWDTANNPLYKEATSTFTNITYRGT

Which esterase activity [1] does the source give for “RGD-rHSA-FN: rHSA containing fibronectin RGD sequence (CGRGDSPC) in place of residues 53-62 of HSA” here?
Its esterase activity is “comparable”.

And the “αvβ3 integrin binding ability / ability to interact” value (αvβ3 integrin)?
The value was “confirmed”.

And the “solubility of purified protein” value [2]?
The value was “soluble”.

What about the “effect of RGD sequence on albumin uptake and/or binding” value (HeLa cells [3]) of the same substance?
Its value is “mildly stimulated”.

Which results are given for “fatty acid-conjugated faTraF peptide: fluorescein-labeled peptide CHLDAHWKG conjugated at Cys thiol with 16-methanethiosulfonyl hexadecanoic acid: HOOC—(CH2)15—S—S-peptide (not fully specified (residue 1); also: fluorescein-labeled (position not given here))”?
transfection of HeLa cells (HeLa cells [4]): transfected; complex with HSA on gel (HSA): clearly observed

For “unmodified peptides: peptide CHLDAHWKG (SEQ ID NO: 58) conjugated with fluorescein at Lys, without fatty acid (CHLDAHWK(fluorescein)G) [reference compound]”, which “transfection of HeLa cells” value (HeLa cells [4]) is on record?
Its value is “can not be observed”.
